# Earlier results in PMC3196573.
# Tests used:
# ALK6 (Homo sapiens) = ALK6 (Homo sapiens) (UniProt O00238)
# ALK3 (Homo sapiens) = ALK3 (Homo sapiens) (UniProt P36894)
# UniProt P36894, sequence (P36894 24-152): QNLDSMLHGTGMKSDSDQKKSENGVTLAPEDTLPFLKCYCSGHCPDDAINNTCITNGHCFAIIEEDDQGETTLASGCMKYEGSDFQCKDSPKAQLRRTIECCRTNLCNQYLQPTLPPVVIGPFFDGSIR
# UniProt O00238, sequence (O00238 14-126): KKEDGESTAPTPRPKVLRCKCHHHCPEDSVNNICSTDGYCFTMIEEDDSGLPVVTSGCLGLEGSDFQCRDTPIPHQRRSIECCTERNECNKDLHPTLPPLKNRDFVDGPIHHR
substance,measurement,setting,value
BMP2 (from UniProt P12643),Kd,ALK6 (Homo sapiens),3.6 nM
same,Kd,ALK3 (Homo sapiens),0.9 nM
